First the molecules themselves.
B1: TPR t1 (parent)
chain: GACCAAUCUGCCCUCAGAGCUCGAGAACAUCUUCGGAUGCAGAGGAGGCAGGCUUCGGUGGCGCGAUAGCGCCAACGUCCUCAACCUCCAAUGCAUCCCACCACAUGAUGAUGCCUGAAGAGCCUUGGUUUUUUG

The variants in this series derive from B1. Kind of series: polymerase ribozyme fitness, log enrichment relative to wild type (log ratio); higher = more active; in vitro selection for triplet polymerase activity. The method in brief: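 Fitness compares each genotype's enrichment to that of the wild type on a logarithmic scale, averaging replicates with inverse-variance weights. The logarithm is base 2. Enrichment came from Illumina sequencing of input and output libraries after one triplicate round of in vitro selection, which included frozen incubation at −7 °C, of PCR-built, transcribed mutant libraries of each subunit of a heterodimeric triplet polymerase ribozyme. Only genotypes with ≥10 input reads and ≥1 read per output were kept.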
Consider GACCAAUCUGCCCCCAGAGCUCGAGAACAUCUUCGGAUGCAGAGGAGGCAGGCUUCGGUGGCGCGAUAGCGCCAACGUCCUCAACCUCCAAUGCAUCCCACCACAAGAUAAAGCCUGAAGAGCCUUGGUUUUUUG, for which the “polymerase ribozyme fitness (log ratio)” value is -3.36. As to GACCAAUCUGCCCCCAGAGCUCGAGAACAUCUUCGGAUGCAGAGGAGGCAGGCUUGGGUGGCGCGAUAGCGCCAACGUCCUCAACCUCCAAUGCAUCCCACCACAUGAUGAUGCCUGAAGAGCCUUGGUUUUUUG, the “polymerase ribozyme fitness (log ratio)” value was -2.27. Take GACCAAUCUGCCCCCAGAGCUCGAGAACAUCUUCGGAUGCAGAGGAGGCAGGCUUCGGUGGCGCGAUAGCGCCAACGUCCUCAACCUCCAAUGCAUCCCACCACAUGAUAAUGCCUGAAGAGCCUUGGUUUUUUG: the “polymerase ribozyme fitness (log ratio)” value is -2.2.

GACCAAUCUGCCCCCAGAGCUCGAGAACAUCUUCGGAUGCAGAGGAGGCAGGCUUCGGUGGCGCGAUAGCGCCAACCUCCUCAACCUCCAAUGCAUCCCACCACAUGAUGAUACCUGAAGAGCCUUGGUUUUUUG: the “polymerase ribozyme fitness (log ratio)” value was -5.53. Consider GACCAAUCUGCCCCCAGAGCUCGAGAACAUCUUCGGAUGCAGAGGAGGGAGGCUUCGGUGGCGCGAUAGCGCCAACGUCCUCACCCUCCAAUGCAUCCCACCACAGGAUGAUGCCUGAAGAGCCUUGGUUUUGUG, for which the “polymerase ribozyme fitness (log ratio)” value is -5.32.

Take GACCAAUCUGCCCCCAGAGCUCGAGAACAUCUUCGGAUGCAGAGGAGGCAGGCUUCGGUGGCGCGAUAGCGCCAACGUCCUCAACCUCCAAUGCAUCCCACCACAUGAUGAUGCCUGAAGAGCCUUGGUUUCUUG: the “polymerase ribozyme fitness (log ratio)” value was -1.36. Consider GACCAAUCUGCCCCCAGAGCUCGAGAACAUCUUCGGAUGCAGAGGAGGCAGGCUUCGGUCGCGCGAUAGCGCCAACGUCCUCAACCUCCAAUGCAACCCACCACAUGAUGAUGCCUGAAGAGCCUUGGUUUUUUG, for which the “polymerase ribozyme fitness (log ratio)” value is -3.46. Regarding GACCAAUCUGCCCCCAGAGCUCGAGAACAUCUUCGGAUGCAGAGGAGGCAGGCUUCGGUGGCGCGAUAGCGUCAACGGCCUCAACCUCCAAUGCAUCCCACCACAUGAUGAUGCUCGAAGAGCCUUGGUUUUUUG, the “polymerase ribozyme fitness (log ratio)” value was -3.05.

Regarding GACCAAUCUGCCCCCAGAGCUCGAGAACAUCUUCGUAUGCAGAGGAGGCAGGGUUCGGUGUCGCGAUAGCGCCAACGUCCUCAACCUCCAAUGCAUCCCACCACAUGAUGAUGCCUGAAGAGCCUUGGUUUUUUG, the “polymerase ribozyme fitness (log ratio)” value was -2.63. Turning to GACCAAUCUGCCCCCAGAGCACGAGAACAUCUUCGGAUGCAGAGGAGGCAGGCUUCGGUGACGCGAUAGCGCCAACGUCCUCAACCUCCAAUGCAUCCCACCACAUGAUGAUGCCUCAAGAGCCUUGGUUUUUUG, the “polymerase ribozyme fitness (log ratio)” value was -3.39.

Consider GACCAAUCUGCCCCCAGAGCUCGAGAACAUCUUCGGAUGCAGAGGAGGCAGGCUUCGGUGGCGCGAUAUCGCCAACGUCCUCUACCUCCAAUGCAUCCCACCACAUGAUGAUGGCUGAAGAGGCUUGGUUUUUUG, for which the “polymerase ribozyme fitness (log ratio)” value is -1.4. As for GACCAAUCUGCCCCCAGAGCUCGAGAACAUCUUCGGAUGCAGAGGAGGCAGGCUUCGGUGGCGCGAUAGCGCCAACGUCCUCAACCUCCAAUUCAUCCCACCACAUGAUGAAGCCUGAAGAGCCUUGGUUUUUUG, the “polymerase ribozyme fitness (log ratio)” value was -2.43.

Take GACCAAUCUGCCCCCAGAGCUCGAGAACAUCUUCGGAUGCAGAGGAGGCAGGCUUGGGUGGCGCGAUAGCGCCAACGUCCUCAACCUCCAAUGCAUCCCACCACAUGAUGAUGCCUGAUGAGCCUUGGUUUUUUG: the “polymerase ribozyme fitness (log ratio)” value is -3.8. Under GACCAAUCUGCCCCCAGAGCUCGAGAACAUCUUCGGAUGCAGAGGAGGCAGGCUUCGGUGGCGCGAUAGCGCCAACGUCCUCAACCUCCAAUGCAUCCCACCACAUGAUGAUGCCUGAAGAGCCUUAGAUUUUUG stands -3.26; under GACCAAUCUGCCCGCAGAGCUCGAGAACAUCUUCGGCUGCAGAGGAAGCAGGCUUCGGUGGCGCGAUAGCGCCAACGUCCUCAACCUCCAAUGCAUCCCACCACAUGAUUAUGCCUGAAUAGCCUUGGUUUUUUG, -5.99. Take GACCAAUCUGCCCCCAGAGCUCGAGAACAUCUUAGGAUGCAGAGGAGGCAGGCUUCGGUGGCGCGAUAGCGCCAACGUCCUCAACCACCAAUGCAUCCCACCACAUGAUGAUGCCUGAAGAGCCUUGGUUUUUUG: the “polymerase ribozyme fitness (log ratio)” value was -4.01. Take GACCAAUCUGCCCGCAGAGCUCGAGAACAUCUUCGGCUGCAGAGGAGGCAGGCUUCGGUGGCGCGAUAGCGCCAACGUCCUCAACCUCCAAUGCAUCCCACCACAUGAUGAUGCCUGAAGAGCCUUGGUUUUUUG: the “polymerase ribozyme fitness (log ratio)” value is -2.99. Under GACCAAUCUGCCCCCAGAGCUCGAGAACAUCUUCGGAUGCAGAGGAGGCAGGCUUCGGUGGCGCGAUAGGGCCAACGUCCUUAACCUCCAAUGCAUCCCACCACAAGAUGAUGCCUGAAGAGCCUUGGUUUUUUG stands -3.34. As to GACCAAUCUGCCCCCAGAGCUCGAGAACAUCUUCGGAUGCAGAGGAGGCAGGCUUCGUUGGCGCGAUAGUUCCAACGUCCUCAACCUCCAAUGCAUCCCACCACAUGAUGAUGCCUGAAGAGCCUUGGUUUUUUG, the “polymerase ribozyme fitness (log ratio)” value is -3.19. For GACCAAUCUGCCCCCAGAGCUCGAGAACAUCUUCGGAUGCAGAGGAGGCAGGCUUCGGUGGCGCGAUAGCGCCAACGUCCUCAACCUCCAAUACAUCCCACCACAUGAUGAUGCCUGAAGAGCCUUGGUUUUUUG, the “polymerase ribozyme fitness (log ratio)” value is -2.47. GACCAAUCUGCCCCCAGAGCUCGAGAACAUCUUCGGAUGCAGAGGAGGCAGGCUUCGGUGGCGCGAUAGCGCCAACGUCCUCAACCUCCAAUGCAUCCCACCAUAUGAUGAUGCCUGAAGAGCCUUGGUUUUUUG: the “polymerase ribozyme fitness (log ratio)” value was -0.978. As to GACCAAUCUGCCCCCAGAGUUCGAGAACAUCUUCGGAUGCAGAGGAGGCAGGCUUCGUUGGGGCGAUAGCGCCAACGUCCUCAACCUCCAAUGCAUCCCACCACAUGAUGAUGCCUGAAGAGCCUUGGUUUUUUG, the “polymerase ribozyme fitness (log ratio)” value is -5.26. Consider GACCAAUCUGCCCCCAGAGCUCGAGAACAUCUUCGGAUGCAGAGGAGGCAGGAUUCGGUGGCGCGAUAGCGCCAACGUCCUCAACCUCCAAUGCAUCCCACCACAUGAUGAUGCCUGAAGAGCCUUGGUUUUUUG, for which the “polymerase ribozyme fitness (log ratio)” value was -1.96. GACCAAUCUGCCCGCAGAGCUCGAGAACAUCUUCGGAUGCAGAGGAGGCCGGCUUGGGUGGCGCGAUAGCGCCAACGUCCUCAACCUCUAAUGCGUCCCACCACAUGAUGAUGCCUGAAGAGCCUUGGUUUUUUG: the “polymerase ribozyme fitness (log ratio)” value is -3.5. Under GACCAAUCUGCCCCCAGAGCUCGAGAACAUCUUCGGAUGCAGAGGAGGCAGGCUUCGGUGGCGCGAUAGCCCCAACGUCCUCAACCUCCAAUGCAUCCCACCACAUGAUGAUGCCUGAAGAGCCUUGGUUUUUUG stands -2.35; under GACCAAUCUGCCCCUAGAGCUCGAGAACAUCUUCGGAUACAGAGGAGGCAGGCUUCGGUGGCGCGAUAGCGCCAACGUCCUCAACCUCCAAUGCAUCCCACCACAUGAUGAUGCCUAAAGAGCCUUGGUUUUUUG, -0.915; under GACCAAUCUGCCCGCAGAGCUCGAGAUCAUCUUCGGAUGCAGAGGAGGCAGGCUUCGGUGGCGCGAUAGCGCCAACGUCCUCAACCUCCAAUGAAUCCCACCACAUGAUGAUGCCUGAAGAGCCUUGGUUUUUUG, -5.54.

Take GACCAAUCUGCCCGCAGAGCUCGAGAACAUCUUCGGUUGCGGAGGAUGCAGGCUUCGGUGGCGCGAUAGCGCCAACGUCCUCAACACCCAAUGCAUCCCACCACAUGAUGAUGCCUGAAGAGCCUUGGUUUUUUG: the “polymerase ribozyme fitness (log ratio)” value is -4.82.

GACCAAUCUGCCCCCAGAGCUCGAGAACAUCUUCGGAUGCAGAGGAGGCAGGCUUCGGUGGCGCGAUAGGGCCAACGUCCUCAACCUCCAAUGCAUCCCACCACAUGAUGAUGCCUGAAGAGCCUUGGUUUUUUG: the “polymerase ribozyme fitness (log ratio)” value was -4.01. GACCAAUCUGCCCGCAGAGCUCGAGAGCGUCUUCGCAUGUAGAGGAGGCAGGCUUAGGUGGCUCGAUAGCGCCAACGUCCUCAACCUCCAAUGCAUCCCACCACAUGAUGAUGCUUGAAGAACCUUGGUUUUUUG: the “polymerase ribozyme fitness (log ratio)” value is -6.64.

With GACCAAUCUGCCCCCAGAGCUCGAGAACAUCUUCGGAUGCAGAGGAGGCAGGCUUCGGUGGCGCGAUAGCGCCAACGUCCUCAACCUCCAAUGCAUCCCACUACAUGAUGAUGCCUGAAGAGCCUUGGUUUUUUG, the “polymerase ribozyme fitness (log ratio)” value is -3.54. For the variant GACCAAUCUGCCCCCAGAGCUCGAGAACAUCUUCGGAUGCAGAGGAGGCAGGCUUCUGUGGCGCGAUAGCGCCAACGUCAUCAACCUCCAAUGCAUCCCACCACAUGAUGAUGCCUGAAGAGCCUUGGUUUUAUG, the “polymerase ribozyme fitness (log ratio)” value was -3.25.

For the variant GACCAAUCUGCCCCUAGAGCUCGAGAACAUCUUCGGAUACAGAGGAGGCAGGCUUCGGUGGCGCGAUAGCGGCAACGUCCUCAACCUCCAAUGCAUCCCACCACAUGAUGAUGCCUAAAGAGCCUUGGUUUUUUG, the “polymerase ribozyme fitness (log ratio)” value was -1.31. The same measure for GACCAAUCUGCCCCCAGAGCUCGAGAACAUCUUCGGAUGCAGAGGAGGCAGGCUUCGGUGGCGCGAUAGCGACAACGUCCUCAACCUCCAAUGCAUCCCACCACAUGAUGUUGCCUGAAGAGCCUUGGUUUUUUG: -6.13; for GACCAAUCUGCCCCCAGAGCUCGAGAACAUCUUCGGAUGCAGAGGAGGCAGGCUUCGGUGGCCCGAUAGCGCCAACGUCCUCAACCUCCAAUGCAUCCCACCACAUGAUGAUGCCUGAAGAGCCUUGGUUUUUUG: -2.35; for GACCAAUCUGCCCCCAGAGCUCGAGAACAUCUUCGGAUGCAGAGGAGGCAGGGUUCGGUGGCGCGAUAGCGCUAACGUCCUCGACCUCCAAUGUAUCCCACCACAUGAUGAUGCCUGAAGAGCCUUGGUUUUUUG: -3.11. On to GACCAAUCUGCCCCCAGAGCUCGAGAACAUCUUCGGAUGCAGAGGAGGCAGGCUUCGGUGGCGCGAUAGCGCCAACGUCCUCAACCUCCAAUGCAUCCCACCACAUGAUGAUACCUGUAGAGCCUUGGUUUUUUG, for which the “polymerase ribozyme fitness (log ratio)” value was -4.79. On to GACCAAUCUGCCCCCAGAGCUCGAGAACAUCUUCGGAUGCAGAGGAGGCAGGCUUCGGUGGCGCGAUAGCGCCAACGUCCUCAACCUCCAAUGCAUCCCACCACAUGAUGUUGCCUGAAGAGCCUUGGUUUUUUG, for which the “polymerase ribozyme fitness (log ratio)” value was -4.43. The same measure for GACCAAUCUGCCCCCAGAGCUCGAGAACAUCUUCGGAUGCAGAGGAGGCAGGCUUCGGUGGCGCGAUAGCGCCAACGUCCUCAACCUCCAAUGCAUUCCACCACAUGAUGAUGCCUGAAGAGCCUUGGUUUUUUG: -3.31; for GACCAAUCUGCCCCCAGAGCUCGAGAACAUCUUCGGAUGCAGAGGAGGUAGGCUUCGGUGGCGCGAUAGCGCCAACGUCCUCAACCUCCAAUGCAUCCCACCACAUGAUGAUGCCUGAAGAGCCUUGGUAUUUUG: -2.74; for GACCAAUCUGCCCGCAGAGCUCGAGAGCAUCUUCGGAUGCAGAGGAGGCAGGCUUCGGUGGCGCGAUAGCGCCAACGUCCUCAACCUCCAAUGCAUCCCACCACAUGAUGAUACCUGAAGGGCCUUGGUUUUAUG: -1.42.

With GACCAAUCUGCCCCCAGAGCUCGAGAACAUCUUCGGAUGCAGAGGAGGCAGGCUUCGGUGGCGCGAUAGAGCCAACGUCCUCAACCUCCAAUGCAUCCCACCACAUGAUGAUGCCUUAAGAGCCUUGGUUUUUUG, the “polymerase ribozyme fitness (log ratio)” value is -5.57.

Values taken from the RNAGym collection of RNA variant scans (doi:10.1073/pnas.2313332121).
